This note sets out measurements from patent publication US20190241674A1 (MAB DISCOVERY, published 2019).

Assay [1] deals with T1, Recombinant Human ErbB2/HER2 Fc Chimera; R&D Systems; Cat. No. 1129-ER (human, UniProt P04626 23-652).
T1 construct: Bought reagent; also called human Her2; HER2-HIS-tag; not shown: not described
Description: HER2 biochemical ELISA, coated HER2 Fc chimera (Example 3).

The next assay concerns the target T2, HER2 on SK-BR-3 cells (human, UniProt P04626 23-1255).
T2 construct: whole, on cells
Description: cell binding to SK-BR-3, high content imaging (Example 4).

Another assay deals with FcγRIIIa receptor, V158 (human, UniProt P08637 17-254). Briefly: cell-based or functional assay.
Chain of FcγRIIIa receptor, V158 (P08637 17-254 F176V): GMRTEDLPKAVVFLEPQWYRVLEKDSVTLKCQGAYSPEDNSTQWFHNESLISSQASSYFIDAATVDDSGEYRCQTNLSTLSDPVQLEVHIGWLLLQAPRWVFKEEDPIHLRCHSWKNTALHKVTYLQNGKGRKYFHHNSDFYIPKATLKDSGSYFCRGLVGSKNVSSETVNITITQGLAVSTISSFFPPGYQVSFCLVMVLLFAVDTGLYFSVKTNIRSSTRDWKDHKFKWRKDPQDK

B1: MABD B100 (antibody)
heavy: not shown
light: DIVMTQTPASVSEPVGGTVTIKCQASQGISTALAWYQQKPGQRPKLLIYSASTLASGVSSRFKGSGSGTQFTLTISDLECADAATYYCQCTAAGSVSVGAFGGGTEVVVNRTVAAPSVFIFPPSDEQLKSGTASVVCLLNNFYPREAKVQWKVDNALQSGNSQESVTEQDSKDSTYSLSSTLTLSKADYEKHKVYACEVTHQGLSSPVTKSFNRGEC
As to B1, the EC50 in assay [1] turned out to be 0.0052 µg/mL. In the assay with HER2 on SK-BR-3 cells, this molecule yielded an EC50 of 0.078 µg/mL. Besides, in the assay with FcγRIIIa receptor, V158, the “EC50 of FcR signaling” value worked out at 0.052 µg/mL and the “stimulation of FcR signaling” value came out at 132 fold.
